# Measurements published in the supplement of paper PMC10065799, “High-throughput profiling of sequence recognition by tyrosine kinases and SH2 domains using bacterial peptide display” (eLife, 2023).
# Key:
# AncSZ = test: phosphorylation enrichment, bacterial display (enrichment ratio); higher = better substrate or ligand; peptides without Tyr show the background
# EPHB1 = EPHB1 (UniProt P54762); test: as above
# EPHB2 = EPHB2 (UniProt P29323); test: as above
# FGFR1 = FGFR1 (UniProt P11362); test: as above
# FGFR3 = FGFR3 (UniProt P22607); test: as above
# Fer (mouse) = test: as above
# Fes = Fes (UniProt P07332); test: as above
# Fyn = Fyn (UniProt P06241); test: as above
# Hck = Hck (UniProt P08631); test: as above
# Jak2 = Jak2 (UniProt O60674); test: as above
# MERTK = MERTK (UniProt Q12866); test: as above
# c-Abl (mouse) = test: as above
# c-Src = test: as above
# Grb2 SH2 = Grb2 SH2 (UniProt P62993); test: SH2 binding enrichment of the phosphorylated peptide, bacterial display (enrichment ratio); higher = better substrate or ligand; peptides without Tyr show the background
# SHP2-C SH2 = test: as above
# c-Src SH2 = test: as above
# 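For SH2 binding enrichment of the phosphorylated peptide, bacterial display in this document: peptide library displayed on the E. coli surface as eCPX fusions, selected cells deep-sequenced, score is each peptide's frequency after selection divided by its frequency in the input.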
# 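For phosphorylation enrichment, bacterial display in this document: 11-residue human phosphosite peptides and single-mutation variants displayed on the E. coli surface, counted by deep sequencing, each peptide's frequency after selection divided by its frequency in the unselected input library; frequency after pTyr selection over input frequency; kinase dosed for 20-30% of maximal phosphorylation in three min.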
# Sequence of Fyn (P06241 whole entry, looked up): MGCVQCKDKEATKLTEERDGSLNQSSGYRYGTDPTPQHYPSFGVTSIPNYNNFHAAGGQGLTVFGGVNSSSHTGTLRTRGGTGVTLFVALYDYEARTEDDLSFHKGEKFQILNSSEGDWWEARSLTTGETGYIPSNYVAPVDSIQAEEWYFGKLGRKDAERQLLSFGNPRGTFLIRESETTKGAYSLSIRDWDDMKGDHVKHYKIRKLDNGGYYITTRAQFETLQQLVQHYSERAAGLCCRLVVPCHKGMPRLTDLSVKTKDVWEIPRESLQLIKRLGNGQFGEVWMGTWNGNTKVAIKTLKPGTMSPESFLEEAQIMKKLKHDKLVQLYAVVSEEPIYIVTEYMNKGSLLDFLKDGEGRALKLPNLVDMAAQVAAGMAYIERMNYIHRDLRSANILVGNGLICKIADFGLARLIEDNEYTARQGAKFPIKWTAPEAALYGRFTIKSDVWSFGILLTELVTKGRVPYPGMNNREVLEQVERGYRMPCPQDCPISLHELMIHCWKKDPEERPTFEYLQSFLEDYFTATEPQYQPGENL
# Sequence of FGFR3 (P22607 whole entry, looked up): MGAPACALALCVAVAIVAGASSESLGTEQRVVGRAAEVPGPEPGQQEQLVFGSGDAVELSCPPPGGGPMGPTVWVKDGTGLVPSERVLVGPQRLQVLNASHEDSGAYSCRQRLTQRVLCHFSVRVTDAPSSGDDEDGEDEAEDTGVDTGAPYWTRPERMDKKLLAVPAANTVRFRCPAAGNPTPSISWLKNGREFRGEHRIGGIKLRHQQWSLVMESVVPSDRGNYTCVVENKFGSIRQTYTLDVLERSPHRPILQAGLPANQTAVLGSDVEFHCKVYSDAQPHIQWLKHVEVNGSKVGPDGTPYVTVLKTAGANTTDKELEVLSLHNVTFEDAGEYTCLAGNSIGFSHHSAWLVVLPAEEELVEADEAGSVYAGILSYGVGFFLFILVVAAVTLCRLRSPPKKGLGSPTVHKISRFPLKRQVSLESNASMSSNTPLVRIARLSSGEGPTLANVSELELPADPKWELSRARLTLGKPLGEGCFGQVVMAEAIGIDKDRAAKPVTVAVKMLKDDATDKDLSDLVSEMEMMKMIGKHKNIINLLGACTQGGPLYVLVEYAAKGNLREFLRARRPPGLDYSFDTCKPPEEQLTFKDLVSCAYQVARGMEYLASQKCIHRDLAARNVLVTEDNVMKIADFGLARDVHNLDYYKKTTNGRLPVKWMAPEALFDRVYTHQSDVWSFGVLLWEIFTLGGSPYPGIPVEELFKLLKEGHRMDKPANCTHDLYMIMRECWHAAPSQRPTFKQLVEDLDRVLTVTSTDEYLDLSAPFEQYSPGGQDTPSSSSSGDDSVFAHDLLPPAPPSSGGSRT
# Sequence of FGFR1 (P11362 whole entry, looked up): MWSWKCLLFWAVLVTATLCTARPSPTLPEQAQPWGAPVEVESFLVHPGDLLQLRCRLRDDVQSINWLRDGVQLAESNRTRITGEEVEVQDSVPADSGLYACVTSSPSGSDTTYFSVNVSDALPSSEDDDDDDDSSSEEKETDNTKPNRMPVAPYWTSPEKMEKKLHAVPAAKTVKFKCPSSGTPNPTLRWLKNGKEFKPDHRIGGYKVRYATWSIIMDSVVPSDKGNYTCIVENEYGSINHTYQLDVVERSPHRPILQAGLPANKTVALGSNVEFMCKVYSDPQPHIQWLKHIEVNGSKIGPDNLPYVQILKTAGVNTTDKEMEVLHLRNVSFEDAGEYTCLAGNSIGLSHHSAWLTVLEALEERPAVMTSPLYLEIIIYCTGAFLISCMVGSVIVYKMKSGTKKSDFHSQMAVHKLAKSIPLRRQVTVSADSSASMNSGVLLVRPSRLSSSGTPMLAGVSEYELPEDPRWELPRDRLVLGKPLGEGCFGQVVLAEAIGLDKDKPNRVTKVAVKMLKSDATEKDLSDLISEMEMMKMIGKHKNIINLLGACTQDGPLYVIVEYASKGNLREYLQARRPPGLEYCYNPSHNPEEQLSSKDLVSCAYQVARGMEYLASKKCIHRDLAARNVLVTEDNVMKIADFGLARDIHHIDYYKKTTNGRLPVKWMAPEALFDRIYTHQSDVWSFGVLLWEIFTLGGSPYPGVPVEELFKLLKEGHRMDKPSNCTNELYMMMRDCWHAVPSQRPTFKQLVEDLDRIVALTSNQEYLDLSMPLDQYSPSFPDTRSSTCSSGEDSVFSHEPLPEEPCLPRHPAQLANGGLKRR
# Sequence of EPHB2 (P29323 whole entry, looked up): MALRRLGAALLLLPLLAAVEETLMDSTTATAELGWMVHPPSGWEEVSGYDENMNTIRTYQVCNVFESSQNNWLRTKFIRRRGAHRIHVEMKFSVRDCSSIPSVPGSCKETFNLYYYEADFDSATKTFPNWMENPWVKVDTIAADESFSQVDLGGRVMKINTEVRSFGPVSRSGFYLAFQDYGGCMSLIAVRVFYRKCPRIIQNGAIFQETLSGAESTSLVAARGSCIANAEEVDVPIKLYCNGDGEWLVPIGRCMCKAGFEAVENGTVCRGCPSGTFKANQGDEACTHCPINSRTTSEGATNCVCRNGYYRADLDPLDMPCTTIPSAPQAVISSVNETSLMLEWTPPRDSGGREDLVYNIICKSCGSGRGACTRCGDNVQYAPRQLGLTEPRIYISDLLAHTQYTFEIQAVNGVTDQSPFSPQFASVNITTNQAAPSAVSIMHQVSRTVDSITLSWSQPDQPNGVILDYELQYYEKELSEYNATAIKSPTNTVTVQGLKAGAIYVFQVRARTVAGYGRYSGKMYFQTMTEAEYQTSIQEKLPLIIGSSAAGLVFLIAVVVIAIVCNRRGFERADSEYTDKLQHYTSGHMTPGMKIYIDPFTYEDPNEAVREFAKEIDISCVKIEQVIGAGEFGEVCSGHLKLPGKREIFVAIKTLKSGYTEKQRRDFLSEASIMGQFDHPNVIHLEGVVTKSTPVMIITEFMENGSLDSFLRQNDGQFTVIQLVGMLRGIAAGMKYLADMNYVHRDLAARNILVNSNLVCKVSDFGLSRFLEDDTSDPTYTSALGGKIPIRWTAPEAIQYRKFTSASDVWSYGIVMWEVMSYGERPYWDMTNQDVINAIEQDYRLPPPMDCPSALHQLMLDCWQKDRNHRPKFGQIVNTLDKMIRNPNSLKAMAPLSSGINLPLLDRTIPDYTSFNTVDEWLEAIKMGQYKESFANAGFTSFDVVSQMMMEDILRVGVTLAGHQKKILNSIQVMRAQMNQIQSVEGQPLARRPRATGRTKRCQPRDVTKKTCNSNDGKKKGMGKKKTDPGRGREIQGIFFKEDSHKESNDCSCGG
# Sequence of EPHB1 (P54762 whole entry, looked up): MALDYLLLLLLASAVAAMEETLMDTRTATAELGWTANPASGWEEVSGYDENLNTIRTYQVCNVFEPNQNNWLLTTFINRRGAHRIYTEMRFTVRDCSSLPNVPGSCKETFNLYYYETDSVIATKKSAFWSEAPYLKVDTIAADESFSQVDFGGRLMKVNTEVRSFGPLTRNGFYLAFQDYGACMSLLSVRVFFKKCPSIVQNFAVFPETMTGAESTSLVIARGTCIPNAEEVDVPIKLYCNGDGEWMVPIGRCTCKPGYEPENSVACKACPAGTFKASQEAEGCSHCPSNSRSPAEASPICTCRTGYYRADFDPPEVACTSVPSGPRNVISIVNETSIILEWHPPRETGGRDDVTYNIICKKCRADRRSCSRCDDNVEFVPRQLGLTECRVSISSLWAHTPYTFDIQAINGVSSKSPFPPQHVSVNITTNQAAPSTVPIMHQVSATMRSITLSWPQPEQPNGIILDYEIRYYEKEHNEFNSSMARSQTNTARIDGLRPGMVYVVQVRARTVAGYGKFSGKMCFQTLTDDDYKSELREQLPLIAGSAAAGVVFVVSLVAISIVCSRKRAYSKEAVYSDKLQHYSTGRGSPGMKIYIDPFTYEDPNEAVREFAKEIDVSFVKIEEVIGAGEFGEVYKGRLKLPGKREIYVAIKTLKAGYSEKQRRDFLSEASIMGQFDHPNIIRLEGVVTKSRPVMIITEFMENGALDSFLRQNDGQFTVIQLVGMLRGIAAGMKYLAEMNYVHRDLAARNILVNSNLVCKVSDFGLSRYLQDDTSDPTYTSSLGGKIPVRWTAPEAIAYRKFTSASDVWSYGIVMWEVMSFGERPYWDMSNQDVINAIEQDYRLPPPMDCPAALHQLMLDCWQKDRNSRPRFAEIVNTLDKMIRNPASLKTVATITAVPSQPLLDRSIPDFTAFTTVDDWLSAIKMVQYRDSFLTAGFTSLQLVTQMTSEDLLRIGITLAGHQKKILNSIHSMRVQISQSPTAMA
# Sequence of Fes (P07332 whole entry, looked up): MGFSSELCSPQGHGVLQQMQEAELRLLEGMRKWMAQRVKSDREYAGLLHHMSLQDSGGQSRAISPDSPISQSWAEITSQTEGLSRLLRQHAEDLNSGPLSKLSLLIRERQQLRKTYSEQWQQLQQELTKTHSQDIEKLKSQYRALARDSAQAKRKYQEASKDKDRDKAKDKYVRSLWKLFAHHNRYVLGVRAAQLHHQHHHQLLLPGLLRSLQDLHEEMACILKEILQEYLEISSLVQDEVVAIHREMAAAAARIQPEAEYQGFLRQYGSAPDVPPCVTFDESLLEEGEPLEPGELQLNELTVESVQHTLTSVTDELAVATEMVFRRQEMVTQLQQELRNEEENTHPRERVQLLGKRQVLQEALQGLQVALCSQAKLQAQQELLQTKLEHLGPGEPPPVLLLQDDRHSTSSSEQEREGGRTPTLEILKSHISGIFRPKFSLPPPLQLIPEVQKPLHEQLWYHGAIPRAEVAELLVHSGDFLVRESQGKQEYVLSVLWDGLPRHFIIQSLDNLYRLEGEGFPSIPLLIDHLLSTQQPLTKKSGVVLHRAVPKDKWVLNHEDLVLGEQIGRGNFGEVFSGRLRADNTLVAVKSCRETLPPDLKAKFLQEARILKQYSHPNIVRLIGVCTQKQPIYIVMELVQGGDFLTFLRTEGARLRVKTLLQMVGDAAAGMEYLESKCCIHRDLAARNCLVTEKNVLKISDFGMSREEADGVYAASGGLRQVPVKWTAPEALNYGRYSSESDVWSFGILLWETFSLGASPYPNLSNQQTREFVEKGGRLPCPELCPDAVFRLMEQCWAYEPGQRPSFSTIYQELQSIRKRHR
SH2 binding enrichment (Grb2 SH2),SH2 binding enrichment (SHP2-C SH2),SH2 binding enrichment (c-Src SH2),Sequence,phosphorylation enrichment (AncSZ),phosphorylation enrichment (EPHB1),phosphorylation enrichment (EPHB2),phosphorylation enrichment (FGFR1),phosphorylation enrichment (FGFR3),phosphorylation enrichment (Fer (mouse)),phosphorylation enrichment (Fes),phosphorylation enrichment (Fyn),phosphorylation enrichment (Hck),phosphorylation enrichment (Jak2),phosphorylation enrichment (MERTK),phosphorylation enrichment (c-Abl (mouse)),phosphorylation enrichment (c-Src)
0.888,0.678,0.508,QHVPDYRQNVF [PCDHGA1_Y890_YF],0.889,0.583,0.597,0.59,0.704,0.578,1.03,0.602,0.585,0.991,0.54,0.798,0.572
0.9,1.14,0.516,QKDIFYGLRSL [IGSF10_Y126_T124I],0.894,0.672,0.616,0.515,0.73,0.405,1.29,0.783,0.676,1.12,0.844,1.03,0.923
1.55,2.56,1.73,QKKPCYEIRWK [PDGFRB_Y562_R561C],1.43,0.958,1.48,0.914,2.08,1.02,1.03,0.983,1.02,0.653,0.67,0.652,0.361
1.05,0.68,0.747,QKPLDYFRVNL [GALE_Y104_YF],1.41,1,0.636,7.69,4.41,0.643,1.59,0.58,0.647,8.52,0.647,0.905,0.711
0.937,0.672,0.422,QKPLDYYRVNL [GALE_Y104],1.77,6.99,2.35,17.8,14.3,0.81,1.27,0.697,0.908,20.5,0.79,2.19,1.85
0.829,1.15,0.634,QLAPQYTFAQG [FLNA_Y1761_YF],0.734,0.344,0.523,0.561,0.42,0.471,0.564,0.259,0.443,0.512,0.457,0.691,0.599
1.04,0.679,0.569,QLLIEYPPEEV [ZZZ3_Y670_K669E],1.36,0.788,0.933,0.659,0.833,0.671,1.31,0.618,0.534,1.27,0.622,1.03,0.44
1.14,0.876,0.759,QNTVDYFDLFG [PTPN11_Y62_G60V_YF],2.35,2.34,1.16,16.2,12.3,0.609,1.44,0.614,0.595,2.22,0.646,0.988,0.619
